Target: T1, PUF4 RNA-binding domain (Saccharomyces cerevisiae, UniProt P25339 537-888)
T1 sequence: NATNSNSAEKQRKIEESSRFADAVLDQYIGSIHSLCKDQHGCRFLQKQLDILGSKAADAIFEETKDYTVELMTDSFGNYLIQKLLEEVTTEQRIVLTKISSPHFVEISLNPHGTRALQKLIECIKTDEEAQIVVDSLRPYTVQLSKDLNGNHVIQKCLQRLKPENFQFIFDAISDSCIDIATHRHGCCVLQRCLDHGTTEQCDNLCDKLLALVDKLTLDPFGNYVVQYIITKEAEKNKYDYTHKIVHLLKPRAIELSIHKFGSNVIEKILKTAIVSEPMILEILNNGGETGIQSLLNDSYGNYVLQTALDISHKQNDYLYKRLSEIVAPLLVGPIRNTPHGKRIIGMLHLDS
Assay: Mg; RNA-MaP; 20 mM Na-HEPES pH 7.4, 30 mM KOAc, 0.75 mM MgCl2, 0.1% Tween-20, 5% glycerol, 0.1 mg/mL BSA, 2 mM DTT; 25 C; 0.0125-409.6 nM protein
Details: tags: N-His6-TEV cleaved; C-SNAP kept, Cy3B-labelled; label: tethered on chip by stalled RNA polymerase

B1: Id_iii_S1_P3E.5_K3.1_C3.3_H3.1_A3.1_F3.1_T3.2_[A10C] (ssRNA)
RNA: UCUCUUUCUUGUAUAUAUCUCUCUU
Binder B1 has a Kd of 6.06 nM.

B2: Id_iii_S1_P3E.5_K3.1_C3.3_H3.1_A3.1_F3.1_T3.2_[A10G] (ssRNA)
RNA: UCUCUUUCUUGUAUAUAUGUCUCUU
Binder B2 has a Kd of 7.51 nM.

B3: Ie_S1_P3E.2_K3.1_C3.2_[+-2C]_H3.1_A3.1_F3.1_T3.2 (ssRNA)
RNA: UCUCUUCCUUGUAUAUAUAUCUCUU
B3 showed a Kd of 6.23 nM.

B4: Id_iii_S1_P3E.5_K3.1_C3.3_[T-3A]_H3.1_A3.1_F3.1_T3.2 (ssRNA)
RNA: UCUCUUACUUGUAUAUAUAUCUCUU
B4 gave a Kd of 5.04 nM.

B5: Ib_S1_P5E.1_K5.1_C5.1_H5.1_[A4T]_A5.1_[T5G]_F5.1_T5.1 (ssRNA)
RNA: UCUCUUUGUUGUAUUAUCUCUU
B5 gave a Kd of 22.2 nM.

B6: Id_iii_S1_P3E.5_K3.1_C3.3_[T-1A]_H3.1_A3.1_F3.1_T3.2 (ssRNA)
RNA: UCUCUUUCAUGUAUAUAUAUCUCUU
For B6, the Kd was 6.5 nM.

B7: Id_iii_S1_P3E.5_K3.1_C3.3_[T-1G]_H3.1_A3.1_F3.1_T3.2 (ssRNA)
RNA: UCUCUUUCGUGUAUAUAUAUCUCUU
Binder B7 has a Kd of 6.72 nM.

B8: Id_iii_S1_P3E.5_K3.1_C3.3_[C-2T]_H3.1_A3.1_F3.1_T3.2 (ssRNA)
RNA: UCUCUUUUUUGUAUAUAUAUCUCUU
Work on B8 yielded a Kd of 6.24 nM.

B9: Id_iii_S1_P3E.5_K3.1_C3.3_[T-1C]_H3.1_A3.1_F3.1_T3.2 (ssRNA)
RNA: UCUCUUUCCUGUAUAUAUAUCUCUU
B9 gave a Kd of 4.14 nM.

B10: Id_iii_S1_P3E.5_K3.1_C3.3_[C-2G]_H3.1_A3.1_F3.1_T3.2 (ssRNA)
RNA: UCUCUUUGUUGUAUAUAUAUCUCUU
B10 was tested, and the Kd was 5.21 nM.

B11: Id_iii_S1_P3E.5_K3.1_C3.3_[C-2A]_H3.1_A3.1_F3.1_T3.2 (ssRNA)
RNA: UCUCUUUAUUGUAUAUAUAUCUCUU
For B11, the Kd was 9.45 nM.

B12: Ib_S1_P5E.1_K5.1_C5.1_H5.1_[A4T]_A5.1_[T5C]_F5.1_T5.1 (ssRNA)
RNA: UCUCUUUGUUCUAUUAUCUCUU
B12 showed a Kd of 31.7 nM.

B13: Id_ii_S4_P5E.4_K5.3_C5.2_[C-2T]_H5.3_A5.1_F5.1_T5.2_[T11A]_[A12T] (ssRNA)
RNA: UUUGACAACUGAUCGUUCUUUCUUUACACUUAUUAAUUUCUUUCUCGAUCAGUUGUCUUU
Binder B13 has a Kd greater than 2300 nM.

B14: Id_ii_S4_P5E.4_K5.3_C5.2_H5.3_A5.1_F5.1_T5.2_[T11G]_[A12C] (ssRNA)
RNA: UUUGACAACUGAUCGUUCUUUCUCUACACUUAUUAGCUUCUUUCUCGAUCAGUUGUCUUU
B14 gave a Kd greater than 2300 nM.

B15: Id_ii_S4_P5E.4_K5.3_C5.2_[T-1C]_H5.3_A5.1_F5.1_T5.2_[T11C]_[A12T] (ssRNA)
RNA: UUUGACAACUGAUCGUUCUUUCUCCACACUUAUUACUUUCUUUCUCGAUCAGUUGUCUUU
In the case of B15, the Kd is reported as greater than 2300 nM.

B16: Id_ii_S4_P5E.4_K5.3_C5.2_H5.3_A5.1_F5.1_T5.2_[A12T] (ssRNA)
RNA: UUUGACAACUGAUCGUUCUUUCUCUACACUUAUUAUUUUCUUUCUCGAUCAGUUGUCUUU
B16 showed a Kd greater than 2300 nM.

B17: Id_ii_S4_P5E.4_K5.3_C5.2_[C-2A]_[T-1C]_H5.3_A5.1_F5.1_T5.2_[A12G] (ssRNA)
RNA: UUUGACAACUGAUCGUUCUUUCUACACACUUAUUAUGUUCUUUCUCGAUCAGUUGUCUUU
B17 gave a Kd greater than 2300 nM.

B18: Id_ii_S4_P5E.4_K5.3_C5.2_[T-1G]_H5.3_A5.1_F5.1_T5.2 (ssRNA)
RNA: UUUGACAACUGAUCGUUCUUUCUCGACACUUAUUAUAUUCUUUCUCGAUCAGUUGUCUUU
Binder B18 has a Kd of 1170 nM.

B19: Id_ii_S4_P5E.4_K5.3_C5.2_[T-1C]_H5.3_A5.1_F5.1_T5.2_[A12G] (ssRNA)
RNA: UUUGACAACUGAUCGUUCUUUCUCCACACUUAUUAUGUUCUUUCUCGAUCAGUUGUCUUU
With B19 the Kd was greater than 2300 nM.

B20: Id_ii_S4_P5E.4_K5.3_C5.2_[C-2T]_H5.3_A5.1_F5.1_T5.2_[A12T] (ssRNA)
RNA: UUUGACAACUGAUCGUUCUUUCUUUACACUUAUUAUUUUCUUUCUCGAUCAGUUGUCUUU
With B20 the Kd was greater than 2300 nM.

B21: Id_ii_S4_P5E.4_K5.3_C5.2_[C-2A]_[T-1A]_H5.3_A5.1_F5.1_T5.2 (ssRNA)
RNA: UUUGACAACUGAUCGUUCUUUCUAAACACUUAUUAUAUUCUUUCUCGAUCAGUUGUCUUU
B21 gave a Kd of 845 nM.

B22: Id_ii_S4_P5E.4_K5.3_C5.2_[C-2A]_H5.3_A5.1_F5.1_T5.2_[A12T] (ssRNA)
RNA: UUUGACAACUGAUCGUUCUUUCUAUACACUUAUUAUUUUCUUUCUCGAUCAGUUGUCUUU
Binder B22 has a Kd of 467 nM.

B23: Id_ii_S4_P5E.4_K5.3_C5.2_[C-2A]_H5.3_A5.1_F5.1_T5.2_[A12G] (ssRNA)
RNA: UUUGACAACUGAUCGUUCUUUCUAUACACUUAUUAUGUUCUUUCUCGAUCAGUUGUCUUU
Work on B23 yielded a Kd of 1530 nM.

Reference: PMC9352680, “A comprehensive thermodynamic model for RNA binding by the Saccharomyces cerevisiae Pumilio protein PUF4”
